According to patent publication US20240226039A1, “IMMUNE CHECKPOINT INHIBITOR AND HDAC INHIBITOR COMBINATION THERAPY STRATEGY” (H. Lee Moffitt Cancer Center and Research Institute, Inc., priority 2021, published 2024):

How the values were obtained:
[1] = design: species or system human; details: in vivo
Description: (§1) Key inclusion criteria: Histologically confirmed mNSCLCm Treatment naïve, and PD-L1 expression≥1% are eligible. Key exclusion criteria: Untreated, progressive, or symptomatic brain metastases, Active uncontrolled autoimmune disorders, and Systemic steroid use equivalent to >10 mg prednisone. […] The primary endpoint was overall response rate (ORR). Additional endpoints included correlative analyses, DOR, PFS and OS. The trial used a Simon Mini-Max two-stage design with interim analysis planned after the first stage when 23 patients were enrolled in each arm.

[2] = system: metastatic NSCLC (mNSCLC); experiment: Phase II randomized trial, best response / ORR; assay type: in vivo, human
Description: as §1, with “Key” for “Key inclusion criteria: Histologically confirmed mNSCLCm Treatment naïve, and PD-L1 expression≥1% are eligible. Key”

CD8+ T cells = experiment: IHC of CD8+ TIL in pre- and on-treatment core biopsies; assay type: in vivo, human; details: biopsy cycle 1 days 15-21; p=0.001 Arm A, p=0.002 Arm B
Description: IHC was performed to determine presence of CD8+ T cells and CD33+ myeloid cells. Biopsies were scored using a 0-3 scale separately in the tumor stroma and tumor beds.

For pembrolizumab [Arm A], the “ALT increased Gr 1” value [1] was 0, the “ALT increased Gr 2” value [1] was 0 and the “ALT increased Gr 3” value [1] was 1 (4%). For the same substance, the “ALT increased Gr 4” value [1] was 0, the “ALT increased Total” value [1] was 1 (4%) and the “AST increased Gr 1” value [1] was 0. The “AST increased Gr 2” value [1] was 0, the “AST increased Gr 3” value [1] was 1 (4%) and the “AST increased Gr 4” value [1] was 0. The “AST increased Total” value [1] was 1 (4%), the “Alkaline phosphatase increased Gr 1” value [1] was 0 and the “Alkaline phosphatase increased Gr 2” value [1] was 0. For the same substance, the “Alkaline phosphatase increased Gr 3” value [1] was 0, the “Alkaline phosphatase increased Gr 4” value [1] was 0 and the “Alkaline phosphatase increased Total” value [1] was 0. The “Alopecia Gr 1” value [1] was 0, the “Alopecia Gr 2” value [1] was 0 and the “Alopecia Gr 3” value [1] was 0. For the same substance, the “Alopecia Gr 4” value [1] was 0, the “Alopecia Total” value [1] was 0 and the “Anemia Gr 1” value [1] was 0. For the same substance, the “Anemia Gr 2” value [1] was 0, the “Anemia Gr 3” value [1] was 0 and the “Anemia Gr 4” value [1] was 0. The “Anemia Total” value [1] was 0, the “Anorexia Gr 1” value [1] was 1 (4%) and the “Anorexia Gr 2” value [1] was 0. For the same substance, the “Anorexia Gr 3” value [1] was 0, the “Anorexia Gr 4” value [1] was 0 and the “Anorexia Total” value [1] was 1 (4%). The “Arthralgia Gr 1” value [1] was 0, the “Arthralgia Gr 2” value [1] was 0 and the “Arthralgia Gr 3” value [1] was 0. The “Arthralgia Gr 4” value [1] was 0, the “Arthralgia Total” value [1] was 0 and the “Chest pain - cardiac Gr 1” value [1] was 0. For the same substance, the “Chest pain - cardiac Gr 2” value [1] was 0, the “Chest pain - cardiac Gr 3” value [1] was 1 (4%) and the “Chest pain - cardiac Gr 4” value [1] was 0. The “Chest pain - cardiac Total” value [1] was 1 (4%), the “Creatinine increased Gr 1” value [1] was 0 and the “Creatinine increased Gr 2” value [1] was 0. For the same substance, the “Creatinine increased Gr 3” value [1] was 0, the “Creatinine increased Gr 4” value [1] was 0 and the “Creatinine increased Total” value [1] was 0. The “Diarrhea Gr 2” value [1] was 1 (4%), the “Diarrhea Gr 3” value [1] was 0 and the “Diarrhea Gr 4” value [1] was 0. The “Diarrhea Total” value [1] was 3 (13%), the “Dysgeusia Gr 1” value [1] was 0 and the “Dysgeusia Gr 2” value [1] was 0. The “Dysgeusia Gr 3” value [1] was 0, the “Dysgeusia Gr 4” value [1] was 0 and the “Dysgeusia Total” value [1] was 0. The “Fatigue Gr 1” value [1] was 1 (4%), the “Fatigue Gr 2” value [1] was 1 (4%) and the “Fatigue Gr 3” value [1] was 0. The “Fatigue Gr 4” value [1] was 0, the “Fatigue Total” value [1] was 2 (8%) and the “Heart failure Gr 1” value [1] was 0. For the same substance, the “Heart failure Gr 2” value [1] was 0, the “Heart failure Gr 3” value [1] was 0 and the “Heart failure Gr 4” value [1] was 0. For the same substance, the “Heart failure Total” value [1] was 0, the “Hyponatremia Gr 1” value [1] was 0 and the “Hyponatremia Gr 2” value [1] was 0. The “Hyponatremia Gr 3” value [1] was 1 (4%), the “Hyponatremia Gr 4” value [1] was 0 and the “Hyponatremia Total” value [1] was 1 (4%). The “Hypothyroidism Gr 1” value [1] was 0, the “Hypothyroidism Gr 2” value [1] was 1 (4%) and the “Hypothyroidism Gr 3” value [1] was 0. For the same substance, the “Hypothyroidism Gr 4” value [1] was 0, the “Hypothyroidism Total” value [1] was 1 (4%) and the “Nausea Gr 1” value [1] was 0. For the same substance, the “Nausea Gr 2” value [1] was 0, the “Nausea Gr 3” value [1] was 0 and the “Nausea Gr 4” value [1] was 0. The “Nausea Total” value [1] was 0, the “Pain Gr 1” value [1] was 0 and the “Pain Gr 2” value [1] was 0. For the same substance, the “Pain Gr 3” value [1] was 0, the “Pain Gr 4” value [1] was 0 and the “Pain Total” value [1] was 0. The “Pericardial effusion/ tamponade Gr 1” value [1] was 0, the “Pericardial effusion/ tamponade Gr 2” value [1] was 0 and the “Pericardial effusion/ tamponade Gr 3” value [1] was 0. The “Pericardial effusion/ tamponade Gr 4” value [1] was 0, the “Pericardial effusion/ tamponade Total” value [1] was 0 and the “Platelet count decreased Gr 1” value [1] was 0. The “Platelet count decreased Gr 2” value [1] was 0, the “Platelet count decreased Gr 3” value [1] was 0 and the “Platelet count decreased Gr 4” value [1] was 0. The “Platelet count decreased Total” value [1] was 0, the “Pneumonitis Gr 1” value [1] was 0 and the “Pneumonitis Gr 2” value [1] was 0. The “Pneumonitis Gr 3” value [1] was 1 (4%), the “Pneumonitis Gr 4” value [1] was 0 and the “Pneumonitis Total” value [1] was 1 (4%). For the same substance, the “Pruritis Gr 2” value [1] was 0, the “Pruritis Gr 3” value [1] was 0 and the “Pruritis Gr 4” value [1] was 0. The “QT prolongation Gr 1” value [1] was 0, the “QT prolongation Gr 2” value [1] was 0 and the “QT prolongation Gr 3” value [1] was 0. The “QT prolongation Gr 4” value [1] was 0, the “QT prolongation Total” value [1] was 0 and the “Rash maculo-papular Gr 1” value [1] was 0. For the same substance, the “Rash maculo-papular Gr 2” value [1] was 0, the “Rash maculo-papular Gr 3” value [1] was 1 (4%) and the “Rash maculo-papular Gr 4” value [1] was 0. The “Rash maculo-papular Total” value [1] was 1 (4%), the “Thromboembolic event Gr 1” value [1] was 0 and the “Thromboembolic event Gr 2” value [1] was 0. For the same substance, the “Thromboembolic event Gr 3” value [1] was 0, the “Thromboembolic event Gr 4” value [1] was 0 and the “Thromboembolic event Total” value [1] was 0. For the same substance, the “Total AEs Gr 1” value [1] was 8, the “Total AEs Gr 2” value [1] was 6 and the “Total AEs Gr 3” value [1] was 6. For the same substance, the “Total AEs Gr 4” value [1] was 0, the “Total AEs Total” value [1] was 20 and the “Total irAEs Gr 1” value [1] was 4. For the same substance, the “Total irAEs Gr 2” value [1] was 2, the “Total irAEs Gr 3” value [1] was 3 and the “Total irAEs Gr 4” value [1] was 0. For the same substance, the “Total irAEs Total” value [1] was 9, the “Vomiting Gr 1” value [1] was 0 and the “Vomiting Gr 2” value [1] was 0. For the same substance, the “Vomiting Gr 3” value [1] was 0, the “Vomiting Gr 4” value [1] was 0 and the “Vomiting Total” value [1] was 0. The “irAE AST increased Gr 1” value [1] was 0, the “irAE AST increased Gr 2” value [1] was 0 and the “irAE AST increased Gr 3” value [1] was 0. The “irAE AST increased Gr 4” value [1] was 0, the “irAE AST increased Total” value [1] was 0 and the “irAE Adrenal insufficiency Gr 1” value [1] was 0. The “irAE Adrenal insufficiency Gr 2” value [1] was 1 (4%), the “irAE Adrenal insufficiency Gr 3” value [1] was 0 and the “irAE Adrenal insufficiency Gr 4” value [1] was 0. For the same substance, the “irAE Adrenal insufficiency Total” value [1] was 1 (4%), the “irAE Arthralgia Gr 1” value [1] was 0 and the “irAE Arthralgia Gr 2” value [1] was 0. For the same substance, the “irAE Arthralgia Gr 3” value [1] was 0, the “irAE Arthralgia Gr 4” value [1] was 0 and the “irAE Arthralgia Total” value [1] was 0. For the same substance, the “irAE Brachial plexopathy Gr 1” value [1] was 0, the “irAE Brachial plexopathy Gr 2” value [1] was 0 and the “irAE Brachial plexopathy Gr 3” value [1] was 0. For the same substance, the “irAE Brachial plexopathy Gr 4” value [1] was 0, the “irAE Brachial plexopathy Total” value [1] was 0 and the “irAE Colitis Gr 1” value [1] was 0. The “irAE Colitis Gr 2” value [1] was 1 (4%), the “irAE Colitis Gr 3” value [1] was 0 and the “irAE Colitis Gr 4” value [1] was 0. For the same substance, the “irAE Colitis Total” value [1] was 1 (4%), the “irAE Hepatitis Gr 1” value [1] was 0 and the “irAE Hepatitis Gr 2” value [1] was 0. The “irAE Hepatitis Gr 3” value [1] was 1 (4%), the “irAE Hepatitis Gr 4” value [1] was 0 and the “irAE Hepatitis Total” value [1] was 1 (4%). For the same substance, the “irAE Hypothyroidism Gr 1” value [1] was 0, the “irAE Hypothyroidism Gr 2” value [1] was 0 and the “irAE Hypothyroidism Gr 3” value [1] was 0. The “irAE Hypothyroidism Gr 4” value [1] was 0, the “irAE Hypothyroidism Total” value [1] was 0 and the “irAE Pancreatic atrophy Gr 1” value [1] was 0. The “irAE Pancreatic atrophy Gr 2” value [1] was 0, the “irAE Pancreatic atrophy Gr 3” value [1] was 0 and the “irAE Pancreatic atrophy Gr 4” value [1] was 0. For the same substance, the “irAE Pancreatic atrophy Total” value [1] was 0, the “irAE Pericardial effusion Gr 1” value [1] was 0 and the “irAE Pericardial effusion Gr 2” value [1] was 0. The “irAE Pericardial effusion Gr 3” value [1] was 0, the “irAE Pericardial effusion Gr 4” value [1] was 0 and the “irAE Pericardial effusion Total” value [1] was 0. The “irAE Pneumonitis Gr 1” value [1] was 0, the “irAE Pneumonitis Gr 2” value [1] was 0 and the “irAE Pneumonitis Gr 3” value [1] was 1 (4%). For the same substance, the “irAE Pneumonitis Gr 4” value [1] was 0, the “irAE Pneumonitis Total” value [1] was 1 (4%) and the “irAE Rash/pruritis/dry skin Gr 1” value [1] was 4 (17%). The “irAE Rash/pruritis/dry skin Gr 2” value [1] was 0, the “irAE Rash/pruritis/dry skin Gr 3” value [1] was 1 (4%) and the “irAE Rash/pruritis/dry skin Gr 4” value [1] was 0. For the same substance, the “irAE Rash/pruritis/dry skin Total” value [1] was 5 (21%), the “treatment discontinued due to toxicity, number of patients” value [1] was 2 patients and the “treatment discontinued due to toxicity, share of patients” value [1] was 8%. The “disease control rate, interim analysis” value ([2]; immunotherapy naive patients, p=0.024) was 58%, the “PRs, interim analysis” value ([2]; immunotherapy naive patients, p=0.026) was 25% and the “ORR in pts with low pre-treatment tumor bed TIL (score=1)” value ([2]; in vivo) was 33.3%. The “Best Response: Progressive Disease” value ([2]; patients n (%), first-line mNSCLC) was 10 (42%), the “Disease Control Rate” value ([2]; patients n (%), first-line mNSCLC, p = 0.024 between arms) was 14 (58%) and the “Best Response: Partial Response” value ([2]; patients n (%), first-line mNSCLC, p = 0.026 between arms) was 6 (25%). For the same substance, the “change from pre-treatment to on-treatment CD8+ TIL scores” value (CD8+ T cells) was “significant increase”.
